Data as given in publication PMC12802937 (Nucleic Acids Research, 2026).

Tests used:
Test in all cases: ITC; Lge1-CT (50–60 μM) injected into Bre1-LR (15 μM); 25°C, 20 mM TRIS (pH 7.5), 200 mM sodium chloride
Settings in all cases: both partners purified
Bre1-LR E378K/E500K = molecular target: T1, Bre1-LR E378K/E500K (budding yeast, UniProt Q07457 227-700, E378K | E500K)
T1 construct: source: E. coli BL21 Rosetta (DE3), purified (Ni-NTA, heparin, gel filtration)
T1 sequence (looked up): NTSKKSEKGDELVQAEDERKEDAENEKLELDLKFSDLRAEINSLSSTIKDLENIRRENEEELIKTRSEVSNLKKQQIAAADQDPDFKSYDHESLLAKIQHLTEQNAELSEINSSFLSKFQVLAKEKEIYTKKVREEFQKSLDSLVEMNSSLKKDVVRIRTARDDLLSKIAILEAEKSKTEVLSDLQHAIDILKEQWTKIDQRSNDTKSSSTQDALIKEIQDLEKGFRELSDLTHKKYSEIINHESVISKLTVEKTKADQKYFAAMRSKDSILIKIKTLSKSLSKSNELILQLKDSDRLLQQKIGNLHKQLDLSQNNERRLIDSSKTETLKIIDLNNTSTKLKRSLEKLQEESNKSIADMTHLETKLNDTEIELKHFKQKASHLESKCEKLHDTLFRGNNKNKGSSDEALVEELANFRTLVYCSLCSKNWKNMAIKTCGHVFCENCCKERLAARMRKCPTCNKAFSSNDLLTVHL

Bre1-LR K534E = molecular target: T2, Bre1-LR K534E (budding yeast, UniProt Q07457 227-700, K534E)
T2 construct: source: E. coli BL21 Rosetta (DE3), purified (Ni-NTA, heparin, gel filtration)
T2 sequence (looked up): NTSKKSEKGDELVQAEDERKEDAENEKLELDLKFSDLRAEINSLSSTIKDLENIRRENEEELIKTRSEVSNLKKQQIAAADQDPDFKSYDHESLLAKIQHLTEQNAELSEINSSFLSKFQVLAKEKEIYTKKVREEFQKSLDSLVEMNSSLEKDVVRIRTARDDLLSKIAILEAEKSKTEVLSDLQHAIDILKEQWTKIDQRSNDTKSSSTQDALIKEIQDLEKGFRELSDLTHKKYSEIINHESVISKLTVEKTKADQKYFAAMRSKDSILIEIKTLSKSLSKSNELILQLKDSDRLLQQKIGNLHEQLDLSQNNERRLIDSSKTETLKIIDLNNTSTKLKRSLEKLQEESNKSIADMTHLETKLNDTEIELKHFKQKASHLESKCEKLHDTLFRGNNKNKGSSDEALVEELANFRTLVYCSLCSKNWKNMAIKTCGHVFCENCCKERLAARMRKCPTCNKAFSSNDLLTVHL

Bre1-LR V382N = molecular target: T3, Bre1-LR V382N (budding yeast, UniProt Q07457 227-700, V382N)
T3 construct: source: E. coli BL21 Rosetta (DE3), purified (Ni-NTA, heparin, gel filtration)
T3 sequence (looked up): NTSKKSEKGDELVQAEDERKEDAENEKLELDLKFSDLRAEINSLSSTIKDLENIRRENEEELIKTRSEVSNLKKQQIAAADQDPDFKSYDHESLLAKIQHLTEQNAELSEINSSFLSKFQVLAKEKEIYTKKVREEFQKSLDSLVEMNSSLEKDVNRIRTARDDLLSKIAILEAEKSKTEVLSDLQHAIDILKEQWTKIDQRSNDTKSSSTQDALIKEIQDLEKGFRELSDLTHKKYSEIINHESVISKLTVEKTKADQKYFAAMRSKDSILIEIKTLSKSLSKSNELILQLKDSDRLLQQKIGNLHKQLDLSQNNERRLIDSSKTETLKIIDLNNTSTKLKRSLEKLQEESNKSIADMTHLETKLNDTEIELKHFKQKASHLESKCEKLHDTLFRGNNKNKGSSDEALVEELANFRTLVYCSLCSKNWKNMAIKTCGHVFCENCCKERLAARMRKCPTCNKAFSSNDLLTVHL

Bre1-LR K379A = molecular target: T4, Bre1-LR K379A (budding yeast, UniProt Q07457 227-700, K379A)
T4 construct: source: E. coli BL21 Rosetta (DE3), purified (Ni-NTA, heparin, gel filtration)
T4 sequence (looked up): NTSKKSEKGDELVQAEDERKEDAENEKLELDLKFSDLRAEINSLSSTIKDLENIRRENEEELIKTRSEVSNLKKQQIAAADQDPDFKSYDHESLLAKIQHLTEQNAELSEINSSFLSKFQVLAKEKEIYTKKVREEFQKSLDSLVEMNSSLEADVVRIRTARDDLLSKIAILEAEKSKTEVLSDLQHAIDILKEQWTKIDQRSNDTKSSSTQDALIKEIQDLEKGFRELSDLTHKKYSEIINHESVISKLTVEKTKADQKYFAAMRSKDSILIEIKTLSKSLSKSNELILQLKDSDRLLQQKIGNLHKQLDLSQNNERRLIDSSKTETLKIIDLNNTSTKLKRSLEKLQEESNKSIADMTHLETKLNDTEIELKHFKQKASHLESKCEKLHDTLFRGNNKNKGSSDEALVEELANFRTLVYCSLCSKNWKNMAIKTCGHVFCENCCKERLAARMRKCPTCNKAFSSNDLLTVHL

- Kd (Bre1-LR E378K/E500K): 98 ± 31.2 nM
- dH (Bre1-LR E378K/E500K): -40.7 ± 1.9 kcal/mol
- stoichiometry N (Bre1-LR E378K/E500K): 0.256 ± 0.007
- Kd (Bre1-LR K534E): 36.9 ± 14.5 nM
- dH (Bre1-LR K534E): -33.9 ± 2.1 kcal/mol
- stoichiometry N (Bre1-LR K534E): 0.469 ± 0.008
- Kd (Bre1-LR V382N): 61.2 ± 14.4 nM
- dH (Bre1-LR V382N): -53.1 ± 1.7 kcal/mol
- stoichiometry N (Bre1-LR V382N): 0.378 ± 0.005
- Kd (Bre1-LR K379A): 82.3 ± 20 nM
- dH (Bre1-LR K379A): -44.1 ± 1.8 kcal/mol
- stoichiometry N (Bre1-LR K379A): 0.415 ± 0.007
B1: Lge1-CT (Lge1 residues 261–332), intein-chitin binding domain (CBD) tag construct (domain or fragment, budding yeast, UniProt Q02796 261-332, looked up)
chain: KNVKKTNNTESECEKAREVFKESDSIDSALEELNLKINSNELELRLLNNQCDKHALNIQLTQEKLDSLLLMQ
notes: Lge1, budding yeast, residues 261-332; residues 268–331 resolved in the electron density; the intein-CBD tag is named on the protein in the pull-down; also called intein-CBD-fused Lge1-CT; intein-CBD-tagged Lge1-CT; source: E. coli BL21 Rosetta (DE3): cleared cell extract on chitin resin (pull-down); purified (chitin, heparin, gel filtration) for ITC and SPR; co-purified with Bre1-LR for the …
